# Results from the supplement of paper PMC7877785.
# ± gives the uncertainty stated by the source.
# Experiment: self-splicing fitness, log relative to wild type (ln ratio); higher = more splicing; Tetrahymena group I intron in knt gene, E. coli kanamycin selection, DiMSum; sequences stand for … in CUCUCU…GGAGGGAAAAGUUAUCAGGCAUGCACCUGGUAGCUAGUCUUUAAACCAAUAGAUUGCAUCGGUUUAAAAGGCAAGACCGUCAAAUUGCGGGAAAGGGGUCAACAGCCGUUCAGUACCAAGUCUCAGGGGAAACUUUGAGAUGGCCUUGCAAAGGGUAUGGUAAUAAGCUGACGGACAUGGUCCUAACCACGCAGCCAAGUCCUAAGUCAACAGAUCUUCUGUUGAUAUGGAUGCAGUUCACAGACUAAAUGUCGGUCGGGGAAGAUGUAUUCUUCUCAUAAGAUAUAGUCGGACCUCUCCUUAAUGGGAGCUAGCGGAUGAAGUGAUGCAACACUGGAGCCGCUGGGAACUAAUUUGUAUGCGAAAGUAUAUUGAUUAGUUUUGGAGUACUCGUGGUCG
# In short: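 Fitness was computed with DiMSum as the error-weighted combination of replicate fold changes, kanamycin versus none, each normalised to wild type. The library randomised all eight intron nucleotides of the P1ex region, with the intron placed in the knt kanamycin-resistance gene on pET-22b(+) in E. coli BL21(DE3). Six replicate transformations were grown overnight at 37°C or 30°C on LB agar with or without 25 μg/mL kanamycin, plus 100 μg/mL carbenicillin, 50 μM IPTG and 0.2% rhamnose. Pooled colonies were amplicon-sequenced on an Illumina HiSeq 2500.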
Sequence,self-splicing fitness (ln) (37 °C),self-splicing fitness (ln) (30 °C)
GGCGAGCAAUAUUACGGUCC,-2.99 ± 0.43,
GGCGAGCAAUAUUACGGUCG,-0.98 ± 0.16,-1.13 ± 0.13
GGCGAGCAAUAUUACGUAAG,-1.39 ± 0.27,-3.88 ± 0.38
GGCGAGCAAUAUUACGUACC,,-1.44 ± 0.25
GGCGAGCAAUAUUACGUAUG,-1.01 ± 0.14,-1.78 ± 0.14
GGCGAGCAAUAUUACGUCAC,,-3.01 ± 0.23
GGCGAGCAAUAUUACGUGGU,-1.77 ± 0.16,-4.31 ± 0.27
GGCUAGCAAUAUUACGAAAG,-2.4 ± 0.44,-2.44 ± 0.26
GGCUAGCAAUAUUACGACAC,0.6 ± 0.16,-0.572 ± 0.11
GGCUAGCAAUAUUACGACGC,0.803 ± 0.43,-0.655 ± 0.41
GGCUAGCAAUAUUACGCACU,-0.592 ± 0.1,-0.665 ± 0.1
GGCUAGCAAUAUUACGCCAG,,-1.55 ± 0.23
GGCUAGCAAUAUUACGCCCG,-3.68 ± 0.26,-4.06 ± 0.47
GGCUAGCAAUAUUACGCUGU,-1.19 ± 0.21,-3.44 ± 0.29
GGCUAGCAAUAUUACGGCAG,-0.728 ± 0.38,-1.12 ± 0.23
GGCUAGCAAUAUUACGGCGU,-0.201 ± 0.094,-0.171 ± 0.086
GGCUAGCAAUAUUACGGCUC,,-3.26 ± 0.3
GGCUAGCAAUAUUACGGGUG,-0.739 ± 0.1,-0.804 ± 0.094
GGCUAGCAAUAUUACGGUAG,-0.259 ± 0.23,-2.31 ± 0.27
GGCUAGCAAUAUUACGGUCG,-0.669 ± 0.12,0.0358 ± 0.11
GGCUAGCAAUAUUACGUACA,-0.185 ± 0.11,-1.07 ± 0.12
GGCUAGCAAUAUUACGUCAU,-0.278 ± 0.086,-1.5 ± 0.082
GGCUAGCAAUAUUACGUCCC,-0.484 ± 0.43,

Sequence,self-splicing fitness (ln) (37 °C),self-splicing fitness (ln) (30 °C)
GGCUAGCAAUAUUACGUCGA,-0.818 ± 0.093,-1.19 ± 0.071
GGCUAGCAAUAUUACGUGAC,-1.02 ± 0.16,-1.84 ± 0.14
GGCUAGCAAUAUUACGUUUU,-0.0101 ± 0.093,-0.476 ± 0.084
GGGAAGCAAUAUUACGAGAU,-2.8 ± 0.38,-2.81 ± 0.25
GGGAAGCAAUAUUACGAGGA,-2.24 ± 0.29,-3.34 ± 0.48
GGGAAGCAAUAUUACGAUCU,-0.134 ± 0.24,-0.627 ± 0.27
GGGAAGCAAUAUUACGCACU,-1.94 ± 0.2,-1.78 ± 0.21
GGGAAGCAAUAUUACGCCAU,-0.83 ± 0.25,-3.31 ± 0.25
GGGAAGCAAUAUUACGCCUA,-0.887 ± 0.28,-0.134 ± 0.2
GGGAAGCAAUAUUACGCGGG,-1.8 ± 0.25,-1.49 ± 0.23
GGGAAGCAAUAUUACGCUCG,-1.03 ± 0.18,-0.703 ± 0.27
GGGAAGCAAUAUUACGGAAU,-1.67 ± 0.42,
GGGAAGCAAUAUUACGGGAC,-3.45 ± 0.21,-2.61 ± 0.21
GGGAAGCAAUAUUACGUUUA,-1.51 ± 0.16,-2.23 ± 0.22
GGGCAGCAAUAUUACGAAGA,-0.958 ± 0.16,-2.31 ± 0.21
GGGCAGCAAUAUUACGACAG,-0.948 ± 0.32,-2.72 ± 0.39
GGGCAGCAAUAUUACGACGG,-1.4 ± 0.27,-3.78 ± 0.35
GGGCAGCAAUAUUACGAUGG,,-3.22 ± 0.35
GGGCAGCAAUAUUACGCAUU,-0.129 ± 0.11,-0.0216 ± 0.078
GGGCAGCAAUAUUACGCGGC,-1.26 ± 0.38,
GGGCAGCAAUAUUACGCUCG,-1.24 ± 0.14,-0.812 ± 0.11
GGGCAGCAAUAUUACGGACU,-0.255 ± 0.091,-0.562 ± 0.07
